Data from patent publication US7838495B2, “Compositions and methods of use of EPB1, and ErbB3 binding protein” (University of Maryland, Baltimore, priority 2007, dated 2010).

Columns and labels:
[1] = test system: androgen-responsive genes; experiment: Microarray gene expression profiling of LNCaP cells stably transfected with EBP1; type: cell-based, human; details: EPB1-overexpressing LNCaP cells vs controls
Description: Microarray Analysis: First and second strand cDNA were synthesized from 5-15 μg of total RNA at Genome Explorations (Nashville, Tenn.) using the SuperScript Double-Stranded cDNA Synthesis Kit (Gibco Life Technologies, Gaithersburg, Md.) and an oligo-dT24-T7 (5′-GGCCAGTGAATTGTAATACGACTCACTATAGGGAGGCGG-3′) (SEQ ID NO: 3) primer according to the manufacturer's instructions. cRNA was synthesized labeled with biotinylated UTP and CTP by in vitro transcription using the T7 promoter-coupled, double-stranded cDNA as template and the T7 RNA Transcript Labeling Kit (ENZO Diagnostics Inc., Farmingdale, N.Y.). The fragmented cRNA was hybridized for U133A oligonucleotide arrays (Affymetrix, Santa Clara, Calif.) containing ˜33,000 full-length annotated genes, together with additional probe sets designed to represent EST sequences. The arrays were then stained with phycoerythrein-conjugated streptavidin (Molecular Probes, Eugene, Oreg.), and the fluorescence intensities were determined using a laser confocal scanner (Hewlett-Packard, Palo Alto, Calif.). The scanned images were analyzed using Microarray software (Affymetrix). Sample loading and variations in staining were standardized by scaling the average of the fluorescent intensities of all genes on an array to constant target intensity for all arrays used. The signal intensity for each gene was calculated as the average intensity difference, represented by [E(PM−MM)/(number of probe pairs)], where PM and MM denote perfect-match and mismatch probes. Data analysis was conducted using Microarray Suite 5.0 (Affymetrix) following user guidelines. Only genes with a minimum expression level of 500 were included in this analysis. […] AR-regulated genes include the Androgen Receptor (AR), PSA (kallikrein 3), Kallikrein 2, POV-1, TMPRSS2, and prostate-derived factor.
Ectopic expression of EPB1 downregulates androgen-regulated genes: Gene expression profiling of LNCaP cells stably transfected with EBP1 was used to determine the range of androgen-dependent genes affected by EPB1 overexpression. These cells overexpress EPB1 protein between two- and three-fold (Zhang et al., 2002, Repression of Androgen Receptor Mediated Transcription by the ErbB-3 Binding Protein EPB1, Oncogene, 21: 5609-5618). Changes in gene expression were measured using microarray analysis of 33,000 transcripts on the Affymetrix U133A chip. To compile a list of differentially regulated genes, only those genes that were activated or repressed at least 3-fold (p<0.05, 500 minimum expression units) were included. […] Forty-one genes were induced and 126 were repressed. Seventy-two of these genes have HUGO approved names. […] These include the Androgen Receptor (3.7 fold decrease), PSA (3.7 fold decrease) as previously reported (Zhang et al., 2002, Repression of Androgen Receptor Mediated Transcription by the ErbB-3 Binding Protein EPB1, Oncogene, 21: 5609-5618), Kallikrein 2 (3.2 fold decrease), POV-1 (5.0 fold decrease), TMPRSS2 (3.2 fold decrease), and prostate-derived factor (3.2 fold decrease). The Kallikrein 2 gene is regulated by AR, predominantly expressed in prostate tissue, secreted by LNCaP cells, and 78% homologous to PSA. […] The TMPRSS2 gene is androgen-regulated and also highly expressed in prostate and prostate cancer (Afar et al., 2001, Catalytic Cleavage of the Androgen-Regulated TMPRSS2 Protease Results in its Secretion by Prostate and Prostate Cancer Epithelia, Cancer Res., 61:1686-1692).

[2] = test system: AR-regulated genes; experiment: Validation by real-time RT-PCR, Western blot and ELISA in LNCaP EPB1 transfectants; type: cell-based, human
Description: Real-Time Quantitative Reverse-Transcription PCR: The method of […] et al. (Nakanishi et al., 2003, Quantitative Analysis of Breast Cancer Resistance Protein and Cellular Resistance to Flavopiridol in Acute Leukemia Patients, Clin. Cancer Res., 9: 3320-3328) was used as previously described. […] Real-time quantitative RT-PCR was then performed on the LightCycler (Roche, Indianapolis, Ind.) platform to determine the relative mRNA levels of EPB1, AR, kallikrein-2 and POV-1. The following forward and reverse primers were selected using Primer Express software and synthesized by Core Laboratory of University of Maryland School of Medicine: EPB1, sense: [NT] ID NO: 4) and antisense: [NT] ID NO: 5), sense: [NT] ID NO: 6) and antisense: [NT] ID NO: 7), Kallikrein-2, sense: [NT] ID NO: 8) and antisense: [NT] ID NO: 9), POV-1, sense: [NT] ID NO: 10) and antisense: [NT] ID NO: 11), Actin, sense: [NT] ID NO: 12) and antisense […] ID NO: 13). […] Target mRNA values were normalized using actin mRNA as an internal control. The relative quantitation of gene expression was performed using the comparative ΔΔ Ct (threshold method) using β-actin as an internal control ([…] et al., 2002, The Nonsteroidal Anti-Inflammatory Drug Sulindac Causes Down-Regulation of Signal Transducer and Activator of Transcription 3 in Human Oral Squamous Cell Carcinoma Cells, Cancer Research, 62:1004-1007). Western Blot Analysis: Briefly, total cell extracts were prepared by direct lysis of cells with buffer containing 50 mM Tris-HCl (pH 7.4), 1 mM EDTA, 250 mM NaCl, 1% Triton® X-100, 0.5 mM dithiothreitol (DTT) and 1 mM phenylmethylsulfonyl (PMSF). Protein concentrations were measured using a detergent compatible kit (BioRad, Hercules, Calif.). Proteins were resolved by SDS-PAGE and analyzed by Western blotting as described (Xia et al., 2001, Analysis of the Expression Pattern of EPB1, an ErbB-3-Binding Protein, Biochem. Biophys. Res. Commun., 289:240-244). The AR antibody was from Santa Cruz Biotechnology (Santa Cruz, Calif.), the EPB1 antibody from Upstate (Lake Placid, N.Y.), the polyclonal antibody to actin from Sigma (St. Louis, Mo.), and the POV-1 antibody was a gift. Measurement of PSA levels: Serum PSA levels were determined using a PSA ELISA kit from DSL, Inc (Webster, Tex.). […] Following a 1 h incubation and extensive washing of the plate, the wells were treated for 30 min with a second anti-PSA antibody labeled with horseradish peroxidase. After washing, the wells were treated with a tetramethylbendizine substrate for 10 min, and absorbance was read at 450 nm. The results of the microarray analysis were validated using real-time quantitative reverse-transcription PCR, Western blot, and ELISA methods. […] PSA secretion in the conditioned media of EPB1 and vector control cells was assessed by ELISA.

B1: EBP1: ErbB3 binding protein (SEQ ID NO: 2), AR corepressor, here ectopically expressed in cancer cells by stable transfection of an expression plasmid (protein, listed as Homo sapiens)
chain: MSGEDEQQEQTIAEDLVVTKYKMGGDIANRVLRSLVEASSSGVSVLSLCEKGDAMIMEETGKIFKKEKEMKKGIAFPTSISVNNCVCHFSPLKSDQDYILKEGDLVKIDLGVHVDGFIANVAHTFVVDVAQGTQVTGRKADVIKAAHLCAEAALRLVKPGNQNTQVTEAWNKVAHSFNCTPIEGMLSHQLKQHVIDGEKTIIQNPTDQQKKDHEKAEFEVHEVYAVDVLVSSGEGKAKDAGQRTTIYKRDPSKQYGLKMKTSRAFFSEVERRFDAMPFTLRAFEDEKKARMGVVECAKHELLQPFNVLYEKEGEFVAQFKFTVLLMPNGPMRITSGPFEPDLYKSEMEVQDAELKALLQSSASRKTQKKKKKKASKTAENATSGETLEENEAGD
modifications: FLAG tag
- Androgen Receptor expression, fold decrease [1]: 3.7 fold
- Kallikrein 2 expression, fold decrease [1]: 3.2 fold
- POV-1 expression, fold decrease [1]: 5.0 fold
- PSA expression, fold decrease [1]: 3.7 fold
- TMPRSS2 expression, fold decrease [1]: 3.2 fold
- prostate-derived factor expression, fold decrease [1]: 3.2 fold
- POV-1 mRNA decrease ([2]; LNCaP EPB1 transfectants): about two-fold
- POV-1 protein decrease ([2]; LNCaP EPB1 transfectants): about two-fold
- kallikrein-2 mRNA expression decrease ([2]; LNCaP EPB1 transfectants): approximately 40%
- AR protein decrease ([2]; LNCaP EPB1 transfectants, Western blot): more than five-fold
- AR mRNA down-regulation ([2]; LNCaP EPB1 transfectants, real-time PCR): more than 2 fold
- secreted PSA protein downregulation ([2]; conditioned media of LNCaP EPB1 transfectants vs controls, ELISA): 10 fold
